Assay results from article PMC4919504.

Columns and labels:
Experiment in all cases: anti-GFP IP, LC-MS/MS spectral counts
Beta-pix = Beta-pix (UniProt Q14155); details: reference: S1448A GFP-Scribble; sites S1448
Git1 = Git1 (UniProt Q9Y2X7); details: reference: S1448A GFP-Scribble; sites S1448
Numa1 = Numa1 (UniProt Q14980); details: sites S1448
Vimentin = Vimentin (UniProt P08670); details: reference: S1448A GFP-Scribble; sites S1448
[1] = reference: wild type GFP-Scribble

Row | other: spectral counts (Beta-pix) | other: spectral counts (Git1) | other: spectral counts (Numa1; reference: S1448A GFP-Scribble) | other: spectral counts (Numa1; [1]) | other: spectral counts (Vimentin) | Substance
1 | same; reference 49 | same; reference 72 | stronger; reference 8 | same; reference 34 | same; reference 277 | Scribble (from UniProt Q14160) S1448D GFP-Scribble
2 | – | – | – | weaker; reference 34 | – | Scribble (from UniProt Q14160) S1448A GFP-Scribble
